The target of experiment [1] is T1, recombinant human soluble gpNMB (recombinant human gpNMB-FLAG-His) (human, UniProt Q14956 23-498).
T1 sequence: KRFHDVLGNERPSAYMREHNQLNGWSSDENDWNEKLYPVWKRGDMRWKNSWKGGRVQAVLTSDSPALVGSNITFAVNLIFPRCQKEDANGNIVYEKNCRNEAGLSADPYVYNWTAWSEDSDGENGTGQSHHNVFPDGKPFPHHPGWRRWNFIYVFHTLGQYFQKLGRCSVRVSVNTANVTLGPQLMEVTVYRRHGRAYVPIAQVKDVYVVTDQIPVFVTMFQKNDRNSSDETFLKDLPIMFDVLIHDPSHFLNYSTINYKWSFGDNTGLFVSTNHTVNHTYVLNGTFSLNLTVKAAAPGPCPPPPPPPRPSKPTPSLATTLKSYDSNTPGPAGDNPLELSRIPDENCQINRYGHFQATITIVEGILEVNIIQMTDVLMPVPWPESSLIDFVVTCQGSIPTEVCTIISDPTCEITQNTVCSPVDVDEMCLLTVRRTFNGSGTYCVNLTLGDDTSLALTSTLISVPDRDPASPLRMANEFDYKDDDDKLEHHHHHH
Kind of experiment: antigen ELISA. (In general: In an ELISA, binding on a coated surface is turned into a signal by an enzyme label.)

The target in experiment [2] is T1, recombinant human soluble gpNMB …. Kind of experiment: antigen ELISA, vs hGPN18-2_H2L3.

B1: hGPN18-2_H2L3 VL E39A (antibody, V domains shown)
VH: QVQLVQSGPGLVQPTQTLTLTCSFSGFSLSTSVMGVGWIRQPSGKGLEWLADIWWDDDKDYNPSLKSRLTISKDTSKNQVVLTMTNMDTVDTATYYCARTYYSNYEYYGMDYWGQGTLVTVSS
VL: DIVMTQSPDSLAVSLGERATINCRSSQTIILSNGNTYLAWYQQKPGQPPKLLIYKVSNRFSGVPDRFSGSGSGTDFTLTISSLQAEDVAVYYCFQGSHVPFTFGSGTKLEIKR
In general, EC50 refers to the concentration needed to bring the measured effect to its halfway point. For the molecule B1, the EC50 in experiment [1] was 84.8 nM. Moreover, the Relative binding activity in experiment [2] is 0.1.

B2: hGPN18-2_H2L3 VL G34A (antibody, V domains shown)
VH: QVQLVQSGPGLVQPTQTLTLTCSFSGFSLSTSVMGVGWIRQPSGKGLEWLADIWWDDDKDYNPSLKSRLTISKDTSKNQVVLTMTNMDTVDTATYYCARTYYSNYEYYGMDYWGQGTLVTVSS
VL: DIVMTQSPDSLAVSLGERATINCRSSQTIILSNANTYLEWYQQKPGQPPKLLIYKVSNRFSGVPDRFSGSGSGTDFTLTISSLQAEDVAVYYCFQGSHVPFTFGSGTKLEIKR
Turning to B2, in experiment [1], the EC50 came to 3.94 nM. Moreover, the Relative binding activity in experiment [2] amounted to 1.

B3: hGPN18-2_H2L3 VL F60A (antibody, V domains shown)
VH: QVQLVQSGPGLVQPTQTLTLTCSFSGFSLSTSVMGVGWIRQPSGKGLEWLADIWWDDDKDYNPSLKSRLTISKDTSKNQVVLTMTNMDTVDTATYYCARTYYSNYEYYGMDYWGQGTLVTVSS
VL: DIVMTQSPDSLAVSLGERATINCRSSQTIILSNGNTYLEWYQQKPGQPPKLLIYKVSNRASGVPDRFSGSGSGTDFTLTISSLQAEDVAVYYCFQGSHVPFTFGSGTKLEIKR
With B3, the EC50 in experiment [1] turned out to be 2.28 nM. In experiment [2], the Relative binding activity was found to be 1.12.

B4: hGPN18-2_H2L3 VL N35A (antibody, V domains shown)
VH: QVQLVQSGPGLVQPTQTLTLTCSFSGFSLSTSVMGVGWIRQPSGKGLEWLADIWWDDDKDYNPSLKSRLTISKDTSKNQVVLTMTNMDTVDTATYYCARTYYSNYEYYGMDYWGQGTLVTVSS
VL: DIVMTQSPDSLAVSLGERATINCRSSQTIILSNGATYLEWYQQKPGQPPKLLIYKVSNRFSGVPDRFSGSGSGTDFTLTISSLQAEDVAVYYCFQGSHVPFTFGSGTKLEIKR
B4: the EC50 in experiment [1] stood at 3.08 nM. For the same molecule, the Relative binding activity in experiment [2] was 1.11.

B5: hGPN18-2_H2L3 VL I30A (antibody, V domains shown)
VH: QVQLVQSGPGLVQPTQTLTLTCSFSGFSLSTSVMGVGWIRQPSGKGLEWLADIWWDDDKDYNPSLKSRLTISKDTSKNQVVLTMTNMDTVDTATYYCARTYYSNYEYYGMDYWGQGTLVTVSS
VL: DIVMTQSPDSLAVSLGERATINCRSSQTIALSNGNTYLEWYQQKPGQPPKLLIYKVSNRFSGVPDRFSGSGSGTDFTLTISSLQAEDVAVYYCFQGSHVPFTFGSGTKLEIKR
For the molecule B5, the concentration for a half-maximal effect (EC50) in experiment [1] turned out to be 4.1 nM. Also, the Relative binding activity in experiment [2] came out at 1.

B6: hGPN18-2_H2L3 VL F101A (antibody, V domains shown)
VH: QVQLVQSGPGLVQPTQTLTLTCSFSGFSLSTSVMGVGWIRQPSGKGLEWLADIWWDDDKDYNPSLKSRLTISKDTSKNQVVLTMTNMDTVDTATYYCARTYYSNYEYYGMDYWGQGTLVTVSS
VL: DIVMTQSPDSLAVSLGERATINCRSSQTIILSNGNTYLEWYQQKPGQPPKLLIYKVSNRFSGVPDRFSGSGSGTDFTLTISSLQAEDVAVYYCFQGSHVPATFGSGTKLEIKR
With B6, the EC50 in experiment [1] came out at 7.66 nM. Also, the Relative binding activity in experiment [2] is 0.69.

B7: hGPN18-2_H2L3 VL I29A (antibody, V domains shown)
VH: QVQLVQSGPGLVQPTQTLTLTCSFSGFSLSTSVMGVGWIRQPSGKGLEWLADIWWDDDKDYNPSLKSRLTISKDTSKNQVVLTMTNMDTVDTATYYCARTYYSNYEYYGMDYWGQGTLVTVSS
VL: DIVMTQSPDSLAVSLGERATINCRSSQTAILSNGNTYLEWYQQKPGQPPKLLIYKVSNRFSGVPDRFSGSGSGTDFTLTISSLQAEDVAVYYCFQGSHVPFTFGSGTKLEIKR
In the case of B7, the EC50 in experiment [1] worked out at 6.04 nM. Also, the Relative binding activity in experiment [2] was determined as 0.75.

B8: hGPN18-2_H2L3 VL F94A (antibody, V domains shown)
VH: QVQLVQSGPGLVQPTQTLTLTCSFSGFSLSTSVMGVGWIRQPSGKGLEWLADIWWDDDKDYNPSLKSRLTISKDTSKNQVVLTMTNMDTVDTATYYCARTYYSNYEYYGMDYWGQGTLVTVSS
VL: DIVMTQSPDSLAVSLGERATINCRSSQTIILSNGNTYLEWYQQKPGQPPKLLIYKVSNRFSGVPDRFSGSGSGTDFTLTISSLQAEDVAVYYCAQGSHVPFTFGSGTKLEIKR
In the case of B8, the EC50 in experiment [1] is 18 nM. In experiment [2], the Relative binding activity was 0.07.

B9: hGPN18-2_H2L3 VL L38A (antibody, V domains shown)
VH: QVQLVQSGPGLVQPTQTLTLTCSFSGFSLSTSVMGVGWIRQPSGKGLEWLADIWWDDDKDYNPSLKSRLTISKDTSKNQVVLTMTNMDTVDTATYYCARTYYSNYEYYGMDYWGQGTLVTVSS
VL: DIVMTQSPDSLAVSLGERATINCRSSQTIILSNGNTYAEWYQQKPGQPPKLLIYKVSNRFSGVPDRFSGSGSGTDFTLTISSLQAEDVAVYYCFQGSHVPFTFGSGTKLEIKR
With B9, the EC50 in experiment [1] is 4.15 nM. In addition, in experiment [2], the Relative binding activity amounted to 1.06.

B10: hGPN18-2_H2L3 VL H98A (antibody, V domains shown)
VH: QVQLVQSGPGLVQPTQTLTLTCSFSGFSLSTSVMGVGWIRQPSGKGLEWLADIWWDDDKDYNPSLKSRLTISKDTSKNQVVLTMTNMDTVDTATYYCARTYYSNYEYYGMDYWGQGTLVTVSS
VL: DIVMTQSPDSLAVSLGERATINCRSSQTIILSNGNTYLEWYQQKPGQPPKLLIYKVSNRFSGVPDRFSGSGSGTDFTLTISSLQAEDVAVYYCFQGSAVPFTFGSGTKLEIKR
As for B10, in experiment [1], the EC50 came out at 5.69 nM. Besides, in experiment [2], the Relative binding activity was found to be 0.8.

B11: hGPN18-2_H2L3 VL G96A (antibody, V domains shown)
VH: QVQLVQSGPGLVQPTQTLTLTCSFSGFSLSTSVMGVGWIRQPSGKGLEWLADIWWDDDKDYNPSLKSRLTISKDTSKNQVVLTMTNMDTVDTATYYCARTYYSNYEYYGMDYWGQGTLVTVSS
VL: DIVMTQSPDSLAVSLGERATINCRSSQTIILSNGNTYLEWYQQKPGQPPKLLIYKVSNRFSGVPDRFSGSGSGTDFTLTISSLQAEDVAVYYCFQASHVPFTFGSGTKLEIKR
In the case of B11, in experiment [1], the EC50 came out at 10.8 nM. The Relative binding activity in experiment [2] worked out at 0.91.

B12: hGPN18-2_H2L3 VL L31A (antibody, V domains shown)
VH: QVQLVQSGPGLVQPTQTLTLTCSFSGFSLSTSVMGVGWIRQPSGKGLEWLADIWWDDDKDYNPSLKSRLTISKDTSKNQVVLTMTNMDTVDTATYYCARTYYSNYEYYGMDYWGQGTLVTVSS
VL: DIVMTQSPDSLAVSLGERATINCRSSQTIIASNGNTYLEWYQQKPGQPPKLLIYKVSNRFSGVPDRFSGSGSGTDFTLTISSLQAEDVAVYYCFQGSHVPFTFGSGTKLEIKR
Regarding B12, the EC50 in experiment [1] came to 20.7 nM. Besides, the Relative binding activity in experiment [2] stood at 0.41.

B13: hGPN18-2_H2L3 VL N33A (antibody, V domains shown)
VH: QVQLVQSGPGLVQPTQTLTLTCSFSGFSLSTSVMGVGWIRQPSGKGLEWLADIWWDDDKDYNPSLKSRLTISKDTSKNQVVLTMTNMDTVDTATYYCARTYYSNYEYYGMDYWGQGTLVTVSS
VL: DIVMTQSPDSLAVSLGERATINCRSSQTIILSAGNTYLEWYQQKPGQPPKLLIYKVSNRFSGVPDRFSGSGSGTDFTLTISSLQAEDVAVYYCFQGSHVPFTFGSGTKLEIKR
Regarding B13, the EC50 in experiment [1] came to 3.66 nM. Further, the Relative binding activity in experiment [2] came to 0.82.

B14: hGPN18-2_H2L3 VL K55A (antibody, V domains shown)
VH: QVQLVQSGPGLVQPTQTLTLTCSFSGFSLSTSVMGVGWIRQPSGKGLEWLADIWWDDDKDYNPSLKSRLTISKDTSKNQVVLTMTNMDTVDTATYYCARTYYSNYEYYGMDYWGQGTLVTVSS
VL: DIVMTQSPDSLAVSLGERATINCRSSQTIILSNGNTYLEWYQQKPGQPPKLLIYAVSNRFSGVPDRFSGSGSGTDFTLTISSLQAEDVAVYYCFQGSHVPFTFGSGTKLEIKR
Take B14: the EC50 in experiment [1] was found to be 48.3 nM. In experiment [2], the Relative binding activity was found to be 0.31.

(Values after EP4772193A1 (Teijin Pharma Limited, dated 2026).)
